Test results taken from patent US20030228663A1.

Target: HER2 extracellular domain (HER2-ECD) (human) (UniProt P04626)
Experiment: SPR (BIAcore 2000 or 3000), Fab over immobilized HER2-ECD, 37 °C, KD = koff/kon

Kd: 380 pM
Substance: hu4D5-8 Fab M.7 (N30(VL)S+H91(VL)F+Y92(VL)W+T94(VL)S+D98(VH)W+Y100a(VH)F+Y102(VH)V)
